Laboratory results taken from publication PMC7983947, “ADP-Ribosylation Regulates the Signaling Function of IFN-γ” (Frontiers in Immunology, 2021).
Each block holds one binder with its values, some of them ahead of it.

How the values were obtained:
[1] = biological target: T1, recombinant IFNR1-Fc (extracellular domain of interferon receptor 1) (UniProt P15261)
T1 sequence: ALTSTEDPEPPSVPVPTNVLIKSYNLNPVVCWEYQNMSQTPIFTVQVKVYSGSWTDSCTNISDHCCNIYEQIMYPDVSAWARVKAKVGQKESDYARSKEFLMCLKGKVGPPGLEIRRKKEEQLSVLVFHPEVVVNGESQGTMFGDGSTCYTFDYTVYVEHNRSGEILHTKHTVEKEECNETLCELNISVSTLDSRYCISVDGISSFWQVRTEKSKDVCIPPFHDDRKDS

[2] = biological target: the molecule itself; test: non-reducing SDS-PAGE; murine serum spiked with IFN-γ, incubated with shed ARTC2.2 and 32P-NAD+; gel run under non-reducing conditions, autoradiography

phosphorylation of STAT1 in primary peritoneal macrophages (flow cytometry, serial titrations); loss of potency against unmodified IFN-γ; restored by de-ADP-ribosylation with ARH1 [1]: 4 fold
B1: ADP-ribosylated IFN-γ (ligand)
chain: HGTVIESLESLNNYFNSSGIDVEEKSLFLDIWRNWQKDGDMKILQSQIISFYLRLFEVLKDNQAISNNISVIESHLITTFFSNSKAKKDAFMSIAKFEVNNPQVQRQAFNELIRVVHQLLPESSLRKRKRSRC
modifications: ADP-ribosyl-arginine at R128

B2: recombinant murine IFN-γ (ligand, UniProt P01580 23-155, looked up)
chain: B1 chain
notes: interferon gamma, murine, recombinant; also called interferon-gamma; native IFN-γ homodimer; source: bought: Immunotools
binding result [2]: binds
